According to the supplement of paper PMC10126150:
± gives the standard deviation of the averaged measurements.

test system: ATP; assay: switch fluorescence ratio, 500 uM ATP over buffer (Cy3 cluster intensity, sum of 5 cycles each) (fold (ratio)); higher = stronger signal-on switching upon ATP binding; sequences stand for … in TCGTCGGCAGCGTCAGATGTGTATAAGAGACAGTTTTTTTTTTTTTTTTTTTTTTTTT…TC; conditions: aptamer strand: ATP DNA aptamer (quencher-CACCTGGGGGAGTATTGCGGAGGAAGG + anchor), 100 nM annealed; ATP concentration: 500 uM
Summary of the method: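 Switching-strand clusters labelled with Cy3 on a modified Illumina MiSeq flow-cell were annealed to 100 nM quencher-labelled ATP aptamer, imaged in selection buffer, and re-imaged after 15 min with 500 uM ATP at 22 °C. This was done over five cycles with NaOH stripping and re-annealing in between. The fluorescence ratio is summed target-cycle over summed buffer-cycle Cy3 intensity per cluster, averaged per switch-domain sequence, excluding clusters outside 100-1000 RFU.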
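Further: ATP exposure 15 min at 22 °C before imaging.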

| Sequence | switch fluorescence ratio |
| --- | --- |
| AAACCAGGGG | 1.54 ± 0.11 |
| ATAATTATGC | 1.025 ± 0.0052 |
| TACCAGTGAT | 1 ± 0.018 |
| ATGGGCATC | 0.9882 ± 0.0058 |
| CATGGGGGTC | 1 ± 0.036 |
| ACTTGGGGGG | 0.994 ± 0.012 |
| GGTTACTTTA | 1.07 ± 0.064 |
| TCAGATAGGG | 0.968 ± 0.017 |
| GACATTTTTA | 0.975 ± 0.022 |
| GGCAGAGTGT | 1 ± 0.063 |
| TTAGGTATCT | 1.01 ± 0.0095 |
| CAAAAGAGTG | 0.999 ± 0.018 |
| TGGGTGGGGG | 1 ± 0.024 |
| GCAGCAGGGT | 1.101 ± 0.0034 |
| CGGCACCCTT | 0.997 ± 0.017 |
| TTTAAGGGCC | 0.978 ± 0.036 |
| GAGGTTGGAG | 1 ± 0.00098 |
| GTCATTTTTG | 1.02 ± 0.025 |
| GGACCCAATG | 0.986 ± 0.011 |
| TTATCATCTA | 1.02 ± 0.013 |
| CAGCGGCGGA | 0.981 ± 0.029 |
| GCTCAGGCTG | 1.02 ± 0.024 |
| AAGGGCCCTT | 1.01 ± 0.018 |
| TGCTCCTTTT | 1 ± 0.034 |
| GCTAACACTT | 1.02 ± 0.013 |
| ATGGGGCAGC | 1 ± 0.025 |

| Sequence | switch fluorescence ratio |
| --- | --- |
| TTTTAATGGT | 1.02 ± 0.03 |
| CAAGGGGGTT | 1.02 ± 0.05 |
| TTGCTCGTGG | 1.028 ± 0.0047 |
| AAGTACGGCC | 1.16 ± 0.025 |
| GCGGTATTCT | 1.001 ± 0.0042 |
| TGTCATTCGC | 1.047 ± 0.0074 |
| CGGGTCGGCA | 1.03 ± 0.017 |
| GCGGGTTATG | 1.02 ± 0.029 |
| GGGCAATTGA | 1 ± 0.051 |
| TCGCAAAATA | 2.47 ± 1.2 |
| GAAATTAGGA | 1.01 ± 0.028 |
| TATGTTTCAA | 1.017 ± 0.0089 |
| GCTTATACGA | 1.55 ± 0.012 |
| GATTAACGTT | 0.971 ± 0.036 |
| AAAGTCTAAA | 0.977 ± 0.015 |
| TTTGTGGGTA | 1.01 ± 0.039 |
| GGTGCTTTGG | 0.993 ± 0.046 |
| TGATTTAACC | 1.05 ± 0.021 |
| GCGGCTGG | 0.963 ± 0.022 |
| GGAGAGGGGT | 0.99 ± 0.035 |
| TCGTCAAAGA | 1.07 ± 0.023 |
| CGAAGGGGGG | 1.03 ± 0.087 |
| AATATGAAGG | 1 ± 0.019 |
| TCGTGGTCTG | 0.999 ± 0.036 |
| AAGTGCCGAG | 0.989 ± 0.027 |
| GGTAGAGGGC | 0.973 ± 0.061 |

| Sequence | switch fluorescence ratio |
| --- | --- |
| CTAGAAGCGG | 0.983 ± 0.013 |
| GTTGTAGTCG | 1.02 ± 0.038 |
| TTGGTTTGCC | 0.982 ± 0.029 |
| TTCGGAAGGG | 0.956 ± 0.025 |
| CTGGTGCGCG | 0.98 ± 0.032 |
| TGATGCAGAA | 1.036 ± 0.0041 |
| ATGTTCTGGG | 1.04 ± 0.029 |
| CTGCCCTATT | 1 ± 0.023 |
| CGGATACGGT | 0.997 ± 0.04 |
| GAAGTTGTCG | 1.02 ± 0.02 |
| GGCTCAATTT | 0.967 ± 0.012 |
| CGGTACCATC | 1.02 ± 0.013 |
| TTGAGTACTT | 0.988 ± 0.025 |
| ATTATATTCT | 1 ± 0.038 |
| TTACAATTTG | 1.01 ± 0.039 |
| GCTGAGAGGC | 1 ± 0.038 |
| TTAATCAATG | 0.998 ± 0.029 |
| TTCGTATGGG | 1.09 ± 0.12 |
| GAGATCGCC | 0.982 ± 0.016 |
| TAGCTTTCGA | 1.06 ± 0.031 |
| GGGGTACAGT | 0.9946 ± 0.0091 |
| CTCTGAGAGG | 0.9719 ± 0.0043 |
| GTTTTAAAAG | 0.979 ± 0.01 |
| TCTTTGGGGG | 1 ± 0.053 |
| CGGGGAGAGG | 0.998 ± 0.036 |
| ACGGGTTGGC | 1.064 ± 0.0044 |

| Sequence | switch fluorescence ratio |
| --- | --- |
| AGAGAAGAGA | 0.998 ± 0.023 |
| GCGGTATGCT | 0.9517 ± 0.0058 |
| GTTGTGGTGT | 1.02 ± 0.014 |
| GACTGTAAAG | 0.967 ± 0.089 |
| CGGGTTTTAT | 1.01 ± 0.028 |
| GATTGGCTGT | 0.966 ± 0.029 |
| TAAGCAGGGC | 1.068 ± 0.0043 |
| AGTCGTGCGG | 0.988 ± 0.037 |
| TTTGACCTGT | 0.991 ± 0.013 |
| TCAGGGTTGC | 1.03 ± 0.025 |
| AAAATAAATG | 1.01 ± 0.017 |
| GCCGTACCTG | 1.041 ± 0.00042 |
| TAATGTGTCG | 1.021 ± 0.0042 |
| CGAAAAAAGA | 1.05 ± 0.12 |
| AGGGCAAACG | 1.05 ± 0.0075 |
| TCGATTAATT | 1.1 ± 0.079 |
| TTAAATTTCT | 1.02 ± 0.0034 |
| CCATGTTGCT | 0.9612 ± 0.0059 |
| CATTTAAGTC | 0.995 ± 0.023 |
| CTTCATTACT | 1.08 ± 0.017 |
| AAGAGTCTTT | 1.01 ± 0.017 |
| AACTATTATG | 1.003 ± 0.01 |
| CGAGGGGCTG | 1.03 ± 0.013 |
| TGGGAAACGT | 1.09 ± 0.027 |
| TCAAGATA | 1.13 ± 0.21 |
| TTTACGGGTC | 0.981 ± 0.026 |

| Sequence | switch fluorescence ratio |
| --- | --- |
| ACGTCTTACT | 1.101 ± 0.0018 |
| CATTGGGTGT | 1.03 ± 0.0098 |
| CGGAGTTAAG | 1.07 ± 0.044 |
| AGCTGTGTGT | 1.012 ± 0.0047 |
| TGTTGCTTCG | 1.03 ± 0.042 |
| AGACTGCCTG | 0.971 ± 0.077 |
| TTCCGTTATG | 1.04 ± 0.037 |
| AAACAGCGTA | 1.01 ± 0.032 |
| CGCCTCAGGG | 1.14 ± 0.018 |
| CATTGAGGGC | 0.987 ± 0.021 |
| ATTGTTTCAG | 0.976 ± 0.02 |
| CTTGCGTGTC | 1.03 ± 0.038 |
| CTAGTGAGTT | 0.999 ± 0.023 |
| TAAGGGGGGC | 0.98 ± 0.029 |
| TTCCTCTGTT | 1.37 ± 0.26 |
| TTACTTCTTT | 0.976 ± 0.027 |
| AGGTTAAGTT | 0.989 ± 0.021 |
| CGCGGTTAAA | 1.18 ± 0.19 |
| TATGAAGCCC | 1.02 ± 0.039 |
| TTGTGGCTGT | 1.01 ± 0.023 |
| CTCTTAGTTT | 0.999 ± 0.023 |
| CGTTGGGTTG | 0.987 ± 0.024 |
| ACTCGGGGAG | 1 ± 0.013 |
| AAGAGGGGTA | 0.999 ± 0.018 |
| TGGATGTTTG | 1.02 ± 0.018 |
| GCTGATGACT | 0.9918 ± 0.0063 |

| Sequence | switch fluorescence ratio |
| --- | --- |
| GACAGCGGGT | 1.01 ± 0.015 |
| CTTTGTAGT | 1.013 ± 0.01 |
| TCCTTGACTT | 1.15 ± 0.26 |
| CCACTTTCCT | 1.2 ± 0.021 |
| CATCAATCTC | 1.12 ± 0.02 |
| GTTTTTTGAA | 0.9764 ± 0.0021 |
| AGGCTTATTT | 1 ± 0.023 |
| GAACGCTGGA | 1.04 ± 0.056 |
| GTTGGCGAGT | 1.01 ± 0.032 |
| GAAACTAATT | 0.9966 ± 0.0042 |
| GACTGCAGGT | 1.01 ± 0.033 |
| AAGGCAGGGG | 1.05 ± 0.044 |
| TTTTCGTCAA | 2.86 ± 2.4 |
| GGGAGAGGTG | 0.989 ± 0.027 |
| GGGTATAGGG | 1.01 ± 0.037 |
| AGGGGATAGG | 0.98 ± 0.046 |
| TCAACAACCA | 1.06 ± 0.017 |
| CTTAGGGAGA | 1 ± 0.035 |
| CAATGTGTCG | 1.07 ± 0.055 |
| ATGTTTGGAC | 1.01 ± 0.02 |
| GCAATTTAGA | 1.02 ± 0.016 |
| GTGGATGGGG | 1.05 ± 0.13 |
| TCTTGCTCGG | 1.01 ± 0.053 |
